From patent publication US20210301005A1

Key:
[1] = target: human TGFβ2, mature receptor-binding domain (human)
[2] = target: human TGFβ3, mature dimeric form (human) (UniProt P10600)
[3] = target: human TGFβ3, mature dimeric form (human) (UniProt P10600); remark: listed apart in the source
[4] = target: human TGFβ1, mature receptor-binding domain (human) (UniProt P01137)
human TGFβ1, mature receptor-binding domain (human), sequence (P01137 279-390 limits assumed): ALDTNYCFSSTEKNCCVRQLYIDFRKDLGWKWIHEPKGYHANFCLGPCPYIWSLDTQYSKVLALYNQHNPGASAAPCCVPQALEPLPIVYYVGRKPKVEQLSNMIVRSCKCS

human TGFβ3, mature dimeric form (human), sequence (P10600 301-412): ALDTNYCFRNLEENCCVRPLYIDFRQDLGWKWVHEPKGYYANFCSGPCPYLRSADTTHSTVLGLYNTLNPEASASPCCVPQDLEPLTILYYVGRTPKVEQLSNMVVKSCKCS
human TGFβ2, mature receptor-binding domain (human), sequence (P09858 303-414 limits assumed): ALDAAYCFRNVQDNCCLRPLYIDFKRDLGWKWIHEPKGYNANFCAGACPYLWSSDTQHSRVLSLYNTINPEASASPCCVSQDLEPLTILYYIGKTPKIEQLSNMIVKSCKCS

B1: Fc-LAP3 (Fc fusion, not shown: a dimerising Fc or GST)
chain: LSTCTTLDFGHIKKKRVEAIRGQILSKLRLTSPPEPTVMTHVPYQVLALYNSTRELLEEMHGEREEGCTQENTESEYYAKEIHKFDMIQGLAEHNELAVCPKGITSKVFRFNVSSVEKNRTNLFRAEFRVLRVPNPSSKRNEQRIELFQILRPDEHIAKQRYIGGKNLPTRGTAEWLSFDVTDTVREWLLRRESNLGLEISIHCPCHTFQPNGDILENIHEVMEIKFKGVDNEDDHGRGDLGRLKKQKDHHNPHLILMMIPPHRLDNPGQGGQRKKR
An IC50 [1] of 12400 nM and an IC50 [2] of 2920 nM were found for B1 in this work.

B2: Fc-LAP2 (Fc fusion, not shown: a dimerising Fc or GST)
chain: SLSTCSTLDMDQFMRKRIEAIRGQILSKLKLTSPPEDYPEPEEVPPEVISIYNSTRDLLQEKASRRAAACERERSDEEYYAKEVYKIDMPPFFPSENAIPPTFYRPYFRIVRFDVSAMEKNASNLVKAEFRVFRLQNPKARVPEQRIELYQILKSKDLTSPTQRYIDSKVVKTRAEGEWLSFDVTDAVHEWLHHKDRNLGFKISLHCPCCTFVPSNNYIIPNKSEELEARFAGIDGTSTYTSGDQKTIKSTRKKNSGKTPHLLLMLLPSYRLESQQTNRRKKR
An IC50 (read off the curve) [3] of 0.6 nM, an IC50 [1] of 548 nM and an IC50 [4] of 10100 nM were found for B2 in this work. It also gave an IC50 [2] of 525 nM.
